The source of these data is patent US20170226161A1 (GlaxoSmithKline, published 2017).

Where “and” joins values, the source holds several entries; their conditions need not be identical. Equal values may be shown once.

Experiment [1] concerns the target T1, factor H comprising only domains 6-7 (UniProt P08603 321-443).
T1 sequence: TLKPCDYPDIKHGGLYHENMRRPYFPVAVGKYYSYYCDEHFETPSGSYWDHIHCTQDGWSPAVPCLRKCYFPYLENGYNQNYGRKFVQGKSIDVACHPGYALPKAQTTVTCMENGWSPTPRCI

In experiment [2] the target is factor H full length (Calbiochem) (UniProt P08603 19-1231).
Chain of factor H full length (Calbiochem) (P08603 19-1231): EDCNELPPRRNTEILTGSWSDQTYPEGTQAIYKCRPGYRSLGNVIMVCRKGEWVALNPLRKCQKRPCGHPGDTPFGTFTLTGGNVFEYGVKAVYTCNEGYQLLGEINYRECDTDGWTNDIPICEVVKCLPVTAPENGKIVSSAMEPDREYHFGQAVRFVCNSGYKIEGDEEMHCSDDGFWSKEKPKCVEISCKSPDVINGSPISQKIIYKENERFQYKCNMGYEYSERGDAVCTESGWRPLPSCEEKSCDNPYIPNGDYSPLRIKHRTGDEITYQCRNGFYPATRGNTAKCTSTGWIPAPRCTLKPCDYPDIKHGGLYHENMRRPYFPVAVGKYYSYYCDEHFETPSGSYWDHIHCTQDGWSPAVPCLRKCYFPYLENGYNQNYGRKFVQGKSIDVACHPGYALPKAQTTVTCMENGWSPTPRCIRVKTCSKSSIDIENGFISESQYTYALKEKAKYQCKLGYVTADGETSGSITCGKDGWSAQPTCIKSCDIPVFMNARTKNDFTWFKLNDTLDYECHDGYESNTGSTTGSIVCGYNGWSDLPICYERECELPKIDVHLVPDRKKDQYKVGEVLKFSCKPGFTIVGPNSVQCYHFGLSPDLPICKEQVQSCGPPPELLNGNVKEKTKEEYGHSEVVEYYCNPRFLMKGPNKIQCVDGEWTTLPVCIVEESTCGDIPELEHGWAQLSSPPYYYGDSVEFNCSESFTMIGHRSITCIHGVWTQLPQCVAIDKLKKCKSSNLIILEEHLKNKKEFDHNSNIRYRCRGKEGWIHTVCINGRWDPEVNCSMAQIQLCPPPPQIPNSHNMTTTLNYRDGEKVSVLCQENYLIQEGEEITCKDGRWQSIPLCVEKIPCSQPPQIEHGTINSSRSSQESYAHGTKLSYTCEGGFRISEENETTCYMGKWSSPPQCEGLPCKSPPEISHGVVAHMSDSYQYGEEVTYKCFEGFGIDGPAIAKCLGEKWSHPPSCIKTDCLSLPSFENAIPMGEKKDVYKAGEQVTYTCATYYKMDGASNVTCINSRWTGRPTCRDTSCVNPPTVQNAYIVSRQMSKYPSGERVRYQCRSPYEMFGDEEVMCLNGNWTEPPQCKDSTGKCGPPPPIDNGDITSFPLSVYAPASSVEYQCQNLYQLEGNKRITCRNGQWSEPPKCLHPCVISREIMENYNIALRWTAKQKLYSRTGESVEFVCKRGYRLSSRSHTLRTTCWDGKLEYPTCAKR
Experiment [3] deals with T2, human factor H (fH), immobilised (human, UniProt P08603 19-1231).
T2 construct: also called human fH
T2 sequence (P08603 19-1231): as above
As to the kind of experiment: SPR (FIG. 6).

B1: 231 S fusion polypeptide (v2-v3-v1 fHbp, stabilised) (other)
chain: MGPDSDRLQQRRVAADIGAGLADALTAPLDHKDKSLQSLTLDQVVRKNEKLKLAAQGAEKTYGNGDSLNTGKLKNDKVSRFDFIRQIEVDGQLITLESGEFQIYKQDHSAVVALQIEKINNPDKIDSLINQRSFRVSGLGGEHTAFNQLPDGKAEYHGKAFSSDDAGGKLTYTIDFAAKQGHGKIEHLKTPEQNVELAAAELKADEKSHAVILGDTRYGSEEKGTYHLALFGDRAQEIAGSATVKIGEKVHEIGIAGKQGSGGGGVAADIGTGLADALTAPLDHKDKGLKSLTLEDVIPQNGTLTLSAQGAEKTFKAGDKDNSLNTGKLKNDKISRFDFVQKIEVDGQTITLASGEFQIYKQNHSAVVALQIEKINNPDKTDSLINQRSFRVSGLGGEHTAFNQLPGGKAEYHGKAFSSDDPNGRLHYSIDFTKKQGYGRIEHLKTLEQNVELAAAELKADEKSHAVILGDTRYGSEEKGTYHLALFGDRAQEIAGSATVKIGEKVHEIGIAGKQGSGGGGVAADIGAGLADALTAPLDHKDKGLQSLTLDQSVSKNEKLKLAAQGAEKTYGNGDSLNTGKLKNDKVSRFDFIRQIEVDGQLITLESGEFQVYKQSHSALTAFQTEQIQDSEHSGKMVAKRQFRIGDIAGEHTSFDKLPEGGRATYRGTAFGSDDAGGKLTYTIDFAAKQGNGKIEHLKSPELNVDLAAADIKPDGKRHAVISGSVLYNQAEKGSYSLGIFGGKAQEVAGSAEVKTVNGIRHIGLAAKQ
For orientation: Kd means a measure of binding affinity in units of concentration. A high value points to a looser complex. By koff is commonly meant the first-order rate constant of dissociation. For orientation: kon means the second-order rate constant of association. The low end stands for slower complex formation, the high end for faster complex formation. Take B1: in experiment [1], the equilibrium dissociation constant (Kd) was 158 nM and 280 nM; the “Ration KD wt/x (residual binding)” value is 0.076; the koff was 0.11 s⁻¹; the on-rate (kon) is 710000 M⁻¹ s⁻¹. Besides, in experiment [2], binding was characterised by a dissociation constant (Kd) of 3100 nM, the “Ration KD wt/x (residual binding)” value came to 0.1, the koff came to 0.064 s⁻¹ and the association rate constant (kon) came to 21000 M⁻¹ s⁻¹.

B2: v3 fHbp with S32V (SEQ ID NO: 17 numbering) (other)
chain: VAADIGTGLADALTAPLDHKDKGLKSLTLEDVIPQNGTLTLSAQGAEKTFKAGDKDNSLNTGKLKNDKISRFDFVQKIEVDGQTITLASGEFQIYKQNHSAVVALQIEKINNPDKTDSLINQRSFLVSGLGGEHTAFNQLPGGKAEYHGKAFSSDDPNGRLHYSIDFTKKQGYGRIEHLKTLEQNVELAAAELKADEKSHAVILGDTRYGSEEKGTYHLALFGDRAQEIAGSATVKIGEKVHEIGIAGKQ
For B2, the “fold reduction of the SPR peak against wild-type v3” value in experiment [3] is roughly 2 fold.
